Consider 29 sequences from the supplement of paper PMC9170038.

The test system of the data set is MS2 coat protein. Briefly: apparent KD of MS2 coat protein; designed switch direction (-1 OFF switch, 1 ON switch): -1; higher = weaker reporter binding. The method, boiled down: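 Designed RNA switches were transcribed on Illumina chips by stalled E. coli RNA polymerase and titrated with SNAP-549-labelled MS2 coat protein from 0.7 or 1.5 nM, doubling to 3 µM. Step length ran from 0.8–1.5 h at the lowest concentration to 10–20 min at the highest. The apparent KD is the median over clusters for each design, from curve-fitted normalised cluster fluorescence.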

[1] abbreviates: input ligand: microRNA oligo, concentration not stated.
Setting [2] is: Eterna round: R95, input ligand: FMN 200 uM.
[3] abbreviates: Eterna round: R95, input ligand: microRNA oligo, concentration not stated.
Setting [4] is: Eterna round: R95, input ligand: none.

On to “AGCUAGUGCCGAGGAUAUACAUGAGGAUCACCCAUGUAAGGCAGUCGGUUUCUGACUGCCAAUAUGUAGAAGGCGGCGUUGGCA [JL ENG2 1.48] (Eterna round: R96, puzzle: Exclusion NG 2)”, for which the “apparent KD of MS2 coat protein” value reads like this: (input ligand: FMN 200 uM) 45.4 nM; under setting [1], 15.8 nM; (input ligand: none) 15.7 nM.
Turning to “AGCUGAGCAGGAUAUACAUGAGGAUCACCCAUGUUGGUCAAGCGACGAUAGUCGCAAUGUAGAAGGGCUCAGCU [E3/8-D2] (Eterna round: R97, puzzle: Exclusion 3)”, the “apparent KD of MS2 coat protein” value runs as follows: (input ligand: FMN 200 uM) 114 nM; (input ligand: none) 357 nM.
For “AGCUGUGGCCGAGGAUAUACACAUGAGGAUCACCCAUGUAGGCGCGGAAACGCGCUAAAAGGGUUGUAGAAGGCGGUCUCAGCA [Eli eng2 - 054] (Eterna round: R96, puzzle: Exclusion NG 2)”, the “apparent KD of MS2 coat protein” value by setting is: (input ligand: FMN 200 uM) 471 nM; under setting [1], 165 nM; (input ligand: none) 114 nM.
On the same counts, the results for “AGCUGUGGCCGAGGAUAUACAUGAGGAUCACCCAUGUUACAUAAUUAGGCCGGGUAACCGGCUCCGUAGAAGGCGGUCUCAGCA [Eli eng2 - 004] (Eterna round: R96, puzzle: Exclusion NG 2)” are 14.3 nM, 11.7 nM and 13.7 nM.
In the case of “AGCUGUGGCCGAGGAUAUCUAAACCUUCAAACCGAAAUAUAAUCGGACAUGAGGAUCACCCAUGUAGAGAAGGCGGUCUCAGCA [Eli eng2 - 034] (Eterna round: R96, puzzle: Exclusion NG 2)”, under setting [1], the “apparent KD of MS2 coat protein” value came out at 9.91 nM.
The same measure, in the same setting: then “AGCUGUGGCCGAGGAUAUCUAUCUCAUAAAACCGAAAUAUAAUCGGACAUGAGGAUCACCCAUGUAGAGAAGGCGGUCUCAGCA [Eli eng2 - 095] (Eterna round: R96, puzzle: Exclusion NG 2)”, with 20.1 nM.
Consider “AGCUGUGGCCGAGGAUAUCUAUCUCCAAUAACCGAAAUAUAAUCGGACAUGAGGAUCACCCAUGUAGAGAAGGCGGUCUCAGCA [Eli eng2 - 090] (Eterna round: R96, puzzle: Exclusion NG 2)”, for which the “apparent KD of MS2 coat protein” value under setting [1] was found to be 15 nM.
Same read-out and setting: as for “AGCUGUGGCCGAGGAUAUCUAUUAAUCCAAACCGAAAUAUAAUCGGACAUGAGGAUCACCCAUGUAGAGAAGGCGGUCUCAGCA [Eli eng2 - 077] (Eterna round: R96, puzzle: Exclusion NG 2)”, the figure is 53.5 nM.
Turning to “AGCUGUGGCCGAGGAUAUCUGAUAGUCCCAACCGAAAUAUAAUCGGACAUGAGGAUCACCCAUGUAGAGAAGGCGGUCUCAGCA [Eli eng2 - 070] (Eterna round: R96, puzzle: Exclusion NG 2)”, the “apparent KD of MS2 coat protein” value by setting is: (input ligand: FMN 200 uM) 214 nM; under setting [1], 57.9 nM; (input ligand: none) 73.9 nM.
Take “AGGAAUGAAGGAUAUACAUGAGGAUCACCCAUGUAAAACAAGAGAUUUGAUGUAUAAUGUAGAAGGUCAAGAAG [JR_Exclusion3_Sub003] (puzzle: Exclusion 3)”: the “apparent KD of MS2 coat protein” value runs as follows: under setting [2], 25.2 nM; under setting [3], 30.5 nM; under setting [4], 35.5 nM.
With “AGGAGCCCACGGGCUCCAAAACAUGAGGAUCACCCAUGUCAGUAGGAUAUCAUGCUUUUCUGCUGUGAGAAGGGCUGAUGUGGC [Esededor] (Eterna round: R96, puzzle: Exclusion NG 3)”, the “apparent KD of MS2 coat protein” value by setting is: (input ligand: FMN 200 uM) 199 nM; under setting [1], 33.8 nM; (input ligand: none) 49 nM.
On to “AGGAUGAGAGGAUAUACAAACGGUCCCACAAUCUCACGGGCACAUGAGGAUCACCCAUGUAGAAGGCUCAUUGG [EX2 B.28] (Eterna round: R97, puzzle: Exclusion 2)”, for which the “apparent KD of MS2 coat protein” value is 325 nM (input ligand: FMN 200 uM) and 49.6 nM (input ligand: none).
Consider “AGGCAAUCAGGAUAUACAUGAGGAUCACCCAUGUGUACAAAGCACAUCCGAUCUAGAUGUAGAAGGGAUAUGCA [Usmabesobi] (puzzle: Exclusion 3)”, for which, under setting [3], the “apparent KD of MS2 coat protein” value turned out to be 18 nM.
Regarding “AGGUAACAUGAGGAUCACCCAUGUCAGGAUAUCAGUAAGAUGAGUAUAGAAGAGAGUAUGAGAAGGGACUAUAU [Excluse me! 25 - Jieux - Exclusion 1] (puzzle: Exclusion 1)”, under setting [3], the “apparent KD of MS2 coat protein” value came out at 31.2 nM.
On the same count and under the same terms, as for “AGGUAACAUGAGGAUCACCCAUGUCAGGAUAUCAGUAAGAUGAGUAUAGAAUAGAGUAUGAGAAGGGACUAUAU [Excluse me! 24 - Jieux - Exclusion 1] (puzzle: Exclusion 1)”, the figure is 30.4 nM.
On to “AGGUCCUUCUGGACACAUGAGGAUCACCCAUGUGCGGUCAGCGAGGAUAUCGGUCUAUAAUGUGACGAGAAGGCGCGGACCGAU [Ex NG3 #60] (Eterna round: R96, puzzle: Exclusion NG 3)”, for which the “apparent KD of MS2 coat protein” value was 38.9 nM (input ligand: FMN 200 uM), 15.3 nM under setting [1] and 20.7 nM (input ligand: none).
On the same counts, the results for “AGGUGCUUCUGGAGACAUGAGGAUCACCCAUGUCGAGUCAGCGAGGAUAUCGGUAAGGCAUGUGAUGAGAAGGCGCAGACCGAU [Ex NG3 #51] (Eterna round: R96, puzzle: Exclusion NG 3)” are 33.7 nM, 20.3 nM and 26.4 nM.
As to “AGUAACUAUCACGAAAGUGAUAGUUACACAAGCAGUGAAACAUGAGGAUCACCCAUGUCCUCAUUAGCUCGUCUUAU [Sensor 3 - 32] (puzzle: Sensor v3, turn-off variant 2)”, the “apparent KD of MS2 coat protein” value is 117 nM under setting [2], 729 nM under setting [3] and 164 nM under setting [4].
For “AGUAACUCAAGAGGAUAUCACAUGAGGAUCACCCAUGUAUAGCGCGCUAUGCUAGUCCUCGUAUUUGAGAAGGUUUGAUAAAUG [JL ViennaUCT Quve mod 2] (Eterna round: R96, puzzle: Exclusion NG 2)”, the “apparent KD of MS2 coat protein” value reads like this: (input ligand: FMN 200 uM) 16.8 nM; under setting [1], 13.1 nM; (input ligand: none) 17.2 nM.
With “AGUAAGCUAGGAUAUGCUUUGGGAAAGCAUUCCUUCGAUAAACUUGAGGAUCACCCAAGUAGAAGGAGCUUACC [salish99_ex2_r4_002] (Eterna round: R97, puzzle: Exclusion 2)”, the “apparent KD of MS2 coat protein” value by setting is: (input ligand: FMN 200 uM) 13.4 nM; (input ligand: none) 12.4 nM.
Turning to “AGUACUAACACGCAAGUGUUAGUACAAUAAGCUUGUGAAACAUGAGGAUCACCCAUGUCCUCAUAAGCUCGUCUUAU [salish99_TOv2_r3_027] (puzzle: Sensor v3, turn-off variant 2)”, the “apparent KD of MS2 coat protein” value is, setting by setting: under setting [2], 16.2 nM; under setting [3], 490 nM; under setting [4], 16.5 nM.
On to “AGUACUAACACGCCUGUGUUAGUACAAUAAGCUUGUGAAACAUGAGGAUCACCCAUGUCCUCAUAAGCUCGUCUUAU [salish99_TOv2_r3_077] (puzzle: Sensor v3, turn-off variant 2)”, for which the “apparent KD of MS2 coat protein” value worked out at 16.3 nM under setting [2], 671 nM under setting [3] and 15.4 nM under setting [4].
Regarding “AGUACUAACACGUAAGUGUUAGUACUAUAAGCUUGUGUUACAUGAGGAUCACCCAUGUCCUCAUAAGCUCGUCUUAA [Mat - Sensor v3 - Turn-off var 2 - D71] (puzzle: Sensor v3, turn-off variant 2)”, the “apparent KD of MS2 coat protein” value under setting [2] was found to be 34.3 nM, the “apparent KD of MS2 coat protein” value under setting [3] turned out to be 132 nM and the “apparent KD of MS2 coat protein” value under setting [4] worked out at 39.4 nM.
In the same order, the values of “AGUACUAACUCGAUAGUGUUAGUACAAUAAGCUUGUGAAACAUGAGGAUCACCCAUGUCCUCAUAAGCUCGUCUUAU [salish99_TOv2_r3_1004] (puzzle: Sensor v3, turn-off variant 2)” are 16.9 nM, 726 nM and 15.4 nM.
On the same counts, the results for “AGUACUAUCACGAAAGUGAUAGUACAAUAAGCUUGUGGAACAUGAGGAUCACCCAUGUCCUCAUAAGCUCGUCUUAU [Mat - Sensor v3 - Turn-off var 2 - D27] (puzzle: Sensor v3, turn-off variant 2)” are 15.7 nM, 68.7 nM and 14.7 nM.
Consider “AGUACUAUCACGAGAGUGAUAGUACAUUAAACUUGUGAGACAUGAGGAUCACCCAUGUCCUCAUGAGCUCGUCUUAA [Mat - Sensor v2 - var 2 - Mod - D185] (Eterna round: R96, puzzle: Sensor v2, turn-off variant 2)”, for which the “apparent KD of MS2 coat protein” value (input ligand: FMN 200 uM) was 299 nM, the “apparent KD of MS2 coat protein” value under setting [1] was 96.1 nM and the “apparent KD of MS2 coat protein” value (input ligand: none) was determined as 165 nM.
Consider “AGUACUAUGCGAGCUGACUUGCGUAGUGCAGCAGGUGAAACAUGAGGAUCACCCAUGUCCUCAUUUGCUCGUCUUAA [Mat - Sensor v3 - Turn-off var 2 - D3] (puzzle: Sensor v3, turn-off variant 2)”, for which the “apparent KD of MS2 coat protein” value is, setting by setting: under setting [2], 39.7 nM; under setting [3], 563 nM; under setting [4], 38 nM.
In the same order, the values of “AGUACUAUGCGUGCUGACAUGCGUAGUGCAGCAGGUGUAACAUGAGGAUCACCCAUGUCCUCAUUUGCUCGUCUUAA [Mat - Sensor v3 - Turn-off var 2 - D13] (puzzle: Sensor v3, turn-off variant 2)” are 107 nM, 224 nM and 129 nM.
In the same order, the values of “AGUAGAUCUACGCUUGCGUGGAUCUGCAAGGCAGGUGUUACAUGAGGAUCACCCAUGUCCUCAUUUGCUCGUCUUAG [JL turnoff v2 99.07] (puzzle: Sensor v3, turn-off variant 2)” are 358 nM, 1100 nM and 332 nM.
